Assay results published in paper doi:10.1101/2019.12.18.881029 (bioRxiv, 2019).
Positions count from the first letter of the chain named.

B1: 101 (antibody, V domains shown)
VH: QSVKESEGGLFKPTDTLTLTCTVSGFSLSRYGVSWVRQAPGSGLQWIGAIGETGRAYYANWAKSRSTITRNTNVNTVTLKMTSLTAADTATYFCARGEEFNNGWGAFNIWGPGTLVTVSS
VL: AYDMTQTPASVSEPVGGTVTIKCQASENIYTSLAWYQQKPGQPPKLLIYSASTLASGVPSRFKGSGSGTEFTLTISDLECADAASYYCQQGFATSNVENPFGGGTEVVVK
B2: 877 (antibody, V domains shown)
VH: B1 VH with S34T, S42N, A49T, A56S, N60S, I68V, V74E, E99L
VL: B1 VL with T31S, P59S, D77G, L78V, E79Q, A81E, S85T, A93G, S95N
B3: 810 (antibody, V domains shown)
VH: B1 VH with T14A, S42N, Q45E, A49T, T53A, K63R, N71T, V74L, K80T, E99V
VL: B1 VL with N28S, T31S, S32G, S50Q, P59S, E70D, T74A, S85T, A93G, T105S

Target: recombinant human TNFa (Shanghai Primegene Bi-Tech) (Homo sapiens, UniProt P01375)
Sequence (P01375 whole entry): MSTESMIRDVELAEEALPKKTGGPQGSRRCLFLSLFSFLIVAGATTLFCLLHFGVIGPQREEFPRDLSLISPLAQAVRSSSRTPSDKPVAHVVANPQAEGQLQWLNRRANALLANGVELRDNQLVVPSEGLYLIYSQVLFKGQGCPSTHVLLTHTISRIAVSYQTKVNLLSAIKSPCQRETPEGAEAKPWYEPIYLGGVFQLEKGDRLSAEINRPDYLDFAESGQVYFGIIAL

Row | binding result | Binder
1 | binds | B1
2 | binds | B2
3 | binds | B3
